Measurements: patent US20090263894A1 (AbbVie / Abbott, published 2009)
Where a chain is given by its changes, count along the chain named.

B1: anti-NGAL monoclonal antibody 1-2322-455 (antibody, V domains shown)
VH: EVQLVESGGGLVQPGGSLKLSCAASGFTFNNYYMSWVRQTPERRLEWVAYISSSGGSTYYSDSVRGRFTISRDTARNTLYLQMTSLKSEDTAMYYCARHFGDYSYFDYWGQGTTLTVSS
VL: DIQMTQSPASLSASVGETVTITCRASENFYSYLAWYQQKQGKSPQLLVYNAKTLAEGVPSRFSGSGSGTQFSLKINSLQPEDFGTYYCQHHYDIPLTFGAGTKLELKR
B2: anti-NGAL monoclonal antibody 1-903-430 (antibody, V domains shown)
VH: KIQLVQSGPELKKPGETVKISCKASGYTFTNYGMNWVKQAPGKGLKWMGWININTGEPTYAEEFKGRFAFSLETSATTAFLQINNLKNEDTATYLCARDSYSGGFDYWGQGTIVTVSS
VL: DIVMTQSPSSLSVSAGEKVTLSCKSSQSLLISGDQKNYLAWYQQKPGQPPKLLIYGASTRDSGVPDRFTGSGSGADFTLTISSVQAEDLAVYYCQNDHSFPPTFGAGTKLELKR

Legend:
[1] = biological target: T1, NGAL rAg H118A displayed on yeast (human, UniProt P80188 21-198); experiment: flow cytometry titration of the mAb on yeast displaying the NGAL antigen, detection with GaM-PE, fractional binding
T1 construct: Yeast display AGA2 fusion as m5
T1 chain: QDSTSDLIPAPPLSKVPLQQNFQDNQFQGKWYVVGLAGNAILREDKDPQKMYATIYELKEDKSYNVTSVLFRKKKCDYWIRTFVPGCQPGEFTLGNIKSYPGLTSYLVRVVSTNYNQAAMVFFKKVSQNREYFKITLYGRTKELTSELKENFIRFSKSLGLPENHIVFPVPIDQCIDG

[2] = biological target: T2, NGAL rAg Q117A displayed on yeast (human, UniProt P80188 21-198); experiment: as above
T2 construct: Yeast display AGA2 fusion as m5
T2 chain: T1 chain with Q117A, A118H

[3] = biological target: T3, NGAL rAg S112A displayed on yeast (human, UniProt P80188 21-198); experiment: as above
T3 construct: Yeast display AGA2 fusion as m5
T3 chain: T1 chain with S112A, A118H

[4] = biological target: T4, NGAL rAg A119G displayed on yeast (human, UniProt P80188 21-198); experiment: as above
T4 construct: Yeast display AGA2 fusion as m5
T4 chain: T1 chain with A118H, A119G

[5] = biological target: T5, wild-type NGAL antigen displayed on yeast (AGA2 fusion) (human, UniProt P80188 21-198); experiment: as above
T5 construct: also called WT

[6] = biological target: T6, human NGAL antigen (Neutrophil Gelatinase Associated Lipocalin) (human, UniProt P80188 21-198, biotin label in the hybridoma EIAs); experiment: SPR (BIAcore): mAb captured on anti-mouse Fc, 100 nM NGAL
T6 construct: also called NGAL-Bt; biotin labeled NGAL
Method: Using BIAcore, NGAL hybrid supernatants are evaluated for relative binding affinity to NGAL and grouped accordingly in NGAL binding epitope groups. The affinity assay was completed on a goat anti-mouse IgG Fc Capture Biosensor as follows. Flow cells were first equilibrated with a running buffer (hereinafter “Running Buffer”) that contains HBS-EP buffer spiked with 0.1% BSA and 0.1% CM-Dextran), at 10 μL/min. Next, 13 μL of supernatant was floated across individual flow cells capturing anti-NGAL antibody from the supernatant onto the biosensor, and with one flow cell being left blank as a reference flow cell. The flow cells then were washed for 5 minutes at 50 μL/min with Running Buffer, and 150 μL of NGAL antigen at a 100 nM concentration was injected across the chip followed by 5 minutes of Running Buffer. The relative binding kinetics, association and dissociation, were monitored via sensorgrams. The sensorgrams were analyzed using Scrubber 2.0 software (BioLogic Software Pty Ltd., Australia) to determine association and dissociation rates, as well as overall KD.

[7] = biological target: T7, NGAL rAg K15A displayed on yeast (human, UniProt P80188 21-198); experiment: flow cytometry, mAb titrated on yeast displaying NGAL; highest mAb concentration tested listed as KD
T7 construct: Yeast display AGA2 fusion as m5
T7 chain: T1 chain with K15A, A118H
Excerpt: (§1) The side chain of each of the NGAL rAg residues identified from the epitope selections was altered by site-directed mutagenesis to alanine to confirm the functional epitope (direct contact residues) of each NGAL mAb subclone.
(§2) For these experiments, observed fluorescence (F) was used to solve for KD using equation [1]. The KD derived from equation [1] one was then used in equation [2] to derive the change in Gibbs free binding energy upon alanine substitution. The KD is read from the abscissa of each of the curves at the inflection point.

[8] = biological target: T8, NGAL rAg R109A displayed on yeast (human, UniProt P80188 21-198); experiment: as above
T8 construct: Yeast display AGA2 fusion as m5
T8 chain: T1 chain with R109A, A118H
Excerpt: as §1, §2

[9] = biological target: T7, NGAL rAg K15A displayed on yeast; experiment: flow cytometry, mAb titrated on yeast displaying NGAL; from the highest mAb concentration tested
Method: as §1
(§3) The change in Gibbs free binding energy (ΔΔG_Ala-WT) was determined to assess the energetic impact of each alanine substitution for mAb binding. The change in Gibbs free binding energy upon alanine substitution was calculated using the following equation [2],
as §2

[10] = biological target: T8, NGAL rAg R109A displayed on yeast; experiment: as above
Method: as §1, §3, §2

Binder	EC50 (read off the curve) [1]	EC50 (read off the curve) [2]	EC50 (read off the curve) [3]	EC50 (read off the curve) [4]	EC50 (read off the curve) [5]	Kd [6]	koff [6]	kon [6]	Kd [7]	Kd [8]	ΔKD (KD against KD of WT) [9]	ΔΔG Ala-WT [9]	ΔKD (KD against KD of WT) [10]	ΔΔG Ala-WT [10]
B1	~0.2 nM	~0.03 nM	~0.1 nM	~0.007 nM	~0.006 nM	0.155 nM	7.28e-05 s⁻¹	468000 M⁻¹ s⁻¹	–	–	–	–	–	–
B2	–	–	–	–	–	1.01 nM	0.000272 s⁻¹	269000 M⁻¹ s⁻¹	> 5000 nM	> 5000 nM	> 24500 fold	> 5.97 kcal/mol	> 24500 fold	> 5.97 kcal/mol
